Test results from publication PMC6224593.

Experiments:
[1] = molecular target: ComR of Streptococcus mutans UA159 (Streptococcus mutans UA159); test: ITC; XIP 600 μM injected into ComR 20 μM; 20 mM Tris pH 7.5, 100 mM NaCl, 1 mM β-ME with matched DMSO; VP-ITC, 25 °C; one-site model
[2] = molecular target: ComR of Streptococcus mutans UA159 (Streptococcus mutans UA159)
[3] = molecular target: ComR of Streptococcus mutans UA159 (Streptococcus mutans UA159); test: ITC; paratox 240 μM injected into ComR 20 μM; 20 mM Tris pH 7.5, 100 mM NaCl, 1 mM β-ME; VP-ITC, 25 °C; one-site model

XIP (sigX-inducing peptide) of Streptococcus mutans UA159
Kd [1]: 3600 nM | stoichiometry N [1]: 1.01

paratox (Prx) of Streptococcus pyogenes MGAS315 (from UniProt Q4VUT1 1-60) (natural protein)
PsigX-luxAB reporter in S. mutans with MGAS315 prx in trans, 200 nM XIP, against the empty vector [2]: > 2 fold | Kd [3]: 133 nM | stoichiometry N [3]: 0.95

paratox of Streptococcus pyogenes MGAS5005, prophage MGAS5005.3 (prx3) (from UniProt Q4VUT1 1-60) (natural protein)
PsigX-luxAB reporter in S. mutans with MGAS5005 prx3 in trans, 200 nM XIP, against the empty vector [2]: > 2 fold

paratox of Streptococcus pyogenes MGAS8232 (from UniProt Q4VUT1 1-60) (natural protein)
PsigX-luxAB reporter in S. mutans with MGAS8232 prx in trans, 200 nM XIP, against the empty vector [2]: > 2 fold
